Results reported in patent publication US10919953 (dated 2021).
Substitutions are numbered along the chain they refer to. Read-outs that look alike come from different tables or passages of the source. One block for each binder: values may come before it.

Legend:
Experiment in all cases: SPR
FcgRIIb [1] = biological target: T1, FcgRIIb (human, UniProt P31994)
T1 chain: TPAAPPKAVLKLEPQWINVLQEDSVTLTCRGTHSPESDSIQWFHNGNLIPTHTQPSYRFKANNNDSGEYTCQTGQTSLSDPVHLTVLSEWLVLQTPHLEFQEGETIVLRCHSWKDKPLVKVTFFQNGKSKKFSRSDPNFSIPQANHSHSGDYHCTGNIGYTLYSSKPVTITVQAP

FcgRIa [2] = biological target: T2, FcgRIa (human, UniProt P12314)
T2 chain: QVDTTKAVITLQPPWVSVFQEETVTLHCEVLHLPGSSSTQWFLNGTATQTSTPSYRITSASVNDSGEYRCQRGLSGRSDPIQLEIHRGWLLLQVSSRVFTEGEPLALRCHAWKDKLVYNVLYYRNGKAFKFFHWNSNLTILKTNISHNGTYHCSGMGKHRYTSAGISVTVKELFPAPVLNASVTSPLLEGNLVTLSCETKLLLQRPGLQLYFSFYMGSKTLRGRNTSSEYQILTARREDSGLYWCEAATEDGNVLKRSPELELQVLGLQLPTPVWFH

FcgRIIaR [3] = biological target: T3, FcgRIIaR (human, UniProt P12318)
T3 chain: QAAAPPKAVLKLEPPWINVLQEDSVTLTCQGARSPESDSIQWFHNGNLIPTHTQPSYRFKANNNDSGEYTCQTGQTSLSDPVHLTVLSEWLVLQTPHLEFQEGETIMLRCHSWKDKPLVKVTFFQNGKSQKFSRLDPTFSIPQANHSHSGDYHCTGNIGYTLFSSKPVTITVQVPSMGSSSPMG

FcgRIIaR [4] = biological target: T3, FcgRIIaR
FcgRIa [5] = biological target: T2, FcgRIa
FcgRIIb [6] = biological target: T1, FcgRIIb
FcgRIIaR [7] = biological target: T3, FcgRIIaR
FcgRIIIaV [8] = biological target: T4, FcgRIIIaV (human, UniProt P08637)
T4 sequence (P08637 17-208 F176V): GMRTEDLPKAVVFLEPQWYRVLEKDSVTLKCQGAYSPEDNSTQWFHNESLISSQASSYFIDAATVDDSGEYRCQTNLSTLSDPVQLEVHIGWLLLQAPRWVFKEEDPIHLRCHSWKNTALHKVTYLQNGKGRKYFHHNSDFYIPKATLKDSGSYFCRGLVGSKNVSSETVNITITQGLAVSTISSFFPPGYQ

FcgRIa [9] = biological target: T2, FcgRIa
FcgRIa [10] = biological target: T2, FcgRIa
FcgRIIIaV [11] = biological target: T4, FcgRIIIaV; remark: listed apart in the source
FcgRIIaH = biological target: T5, FcgRIIaH (human, UniProt P12318)
T5 chain: T3 chain with R134H

FcgRIIb [12] = biological target: T1, FcgRIIb
FcgRIIaR [13] = biological target: T3, FcgRIIaR
FcgRIIb [14] = biological target: T1, FcgRIIb

B3: IL6R-BP230/IL6R-L (antibody)
chain 1: QVQLQESGPGLVKPSETLSLTCAVSGHSISHDHAWSWVRQPPGEGLEWIGFISYSGITNYNPSLQGRVTISRDNSKNTLYLQMNSLRAEDTAVYYCARSLARTTAMDYWGEGTLVTVSSASTKGPSVFPLAPSSKSTSGGTAALGCLVKDYFPEPVTVSWNSGALTSGVHTFPAVLQSSGLYSLSSVVTVPSSSLGTQTYICNVNHKPSNTKVDKKVEPKSCDKTHTCPPCPAPDLLGDDSVFLFPPKPKDTLMISRTPEVTCVVVDVSDEDGEVKFNWYVDGVEVHNAKTKPREEQDNSTYRVVSVLTVLHQDWLNGKEYKCKVSNKALPRPIEKTISKAKGQPREPQVYTLPPSRDELTKNQVSLTCLVKGFYPSDIAVEWESNGQPENNYKTTPPVLDSDGSFFLYSKLTVDKSRWQQGNVFSCSVMHEALHNHYTQESLSLSP
chain 2: not shown
Kd (FcgRIIaR [4]): 490 nM
Kd (FcgRIa [5]): 10 nM
Kd (FcgRIIb [6]): 18 nM

B5: IL6R-BP253/IL6R-L (antibody)
chain 1: B3 chain 1 with D235E, D239G, D240P, S269E, D270H, G273P, D298Y, L330F, R332A
chain 2: not shown
Kd (FcgRIIIaV [8]): 400 nM
Kd (FcgRIa [9]): 0.05 nM
Kd (FcgRIa [10]): 0.067 nM
Kd (FcgRIIIaV [11]): 3600 nM
Kd (FcgRIIaH): 860 nM
Kd (FcgRIIb [12]): 11 nM
Kd (FcgRIIaR [13]): 2.3 nM
Kd (FcgRIIb [14]): 8.9 nM

The remaining lines, values ahead:

Kd (FcgRIIb [1]): 19 nM
Kd (FcgRIa [2]): 7.7 nM
Kd (FcgRIIaR [3]): 540 nM
B1: IL6R-BP478/IL6R-L (antibody)
chain 1: QVQLQESGPGLVKPSETLSLTCAVSGHSISHDHAWSWVRQPPGEGLEWIGFISYSGITNYNPSLQGRVTISRDNSKNTLYLQMNSLRAEDTAVYYCARSLARTTAMDYWGEGTLVTVSSASTKGPSVFPLAPCSRSTSESTAALGCLVKDYFPEPVTVSWNSGALTSGVHTFPAVLQSSGLYSLSSVVTVPSSSLGTKTYTCNVDHKPSNTKVDKRVESKYGPPCPPCPAPDLLGDDSVFLFPPKPKDTLMISRTPEVTCVVVDVSDEDGEVKFNWYVDGVEVHNAKTKPREEQDNSTYRVVSVLTVLHQDWLNGKEYKCKVSNKALPRPIEKTISKAKGQPREPQVYTLPPSRDELTKNQVSLTCLVKGFYPSDIAVEWESNGQPENNYKTTPPVLDSDGSFFLYSKLTVDKSRWQQGNVFSCSVMHEALHNHYTQESLSLSP
chain 2: not shown

Kd (FcgRIIb [1]): 35 nM
Kd (FcgRIa [2]): 7.3 nM
Kd (FcgRIIaR [3]): 800 nM
B2: IL6R-BP471/IL6R-L (antibody)
chain 1: B3 chain 1 with P331S
chain 2: not shown

Kd (FcgRIIaR [7]): 600 nM
B4: IL6R-BP223/IL6R-L (antibody)
chain 1: B3 chain 1 with D235E, L236Y, D298Y, K328A
chain 2: not shown
